Broadly, the Kd is the constant that tells how readily two partners part at equilibrium. One may read the koff as a measure of how fast the partners let go of each other. High values mean fast dissociation, low ones slow dissociation. A word on the kon: it is a measure of how fast the partners come together.

Experimental findings from paper PMC7022404 are described below.

In assay [1] the target is Recombinant protein G (PG) from Streptococcus sp. (Streptococcus sp.) (UniProt P19909). The assay is described as follows: QCM-D; PG covalently immobilised (APTES, glutaraldehyde) on a silica-coated QCM-D crystal, deactivated with Tris/ethanolamine, blocked with BSA; trastuzumab 1 ug/mL in 1 x PBS injected; Kelvin-Voigt model for mass and thickness.
For assay [2], the target named is Linker-protein G (LPG) (Streptococcus sp.). The assay is described as follows: QCM-D; LPG physisorbed on a silica-coated QCM-D crystal, trastuzumab injected, PBS washes between injections; 1 x PBS pH 7.4, room temperature; Kelvin-Voigt model for mass and thickness.
In assay [3] the target is Humanized anti-HER2 monoclonal antibody trastuzumab (human). The assay is described as follows: SPR. On the technique in general: In SPR one partner is held on a chip, and binding of the other changes the refractive index at the surface.

For the substance “Humanized anti-HER2 monoclonal antibody trastuzumab”, the Mass Deposited for Bound Antibody in assay [1] is 451 ng/cm^2; in assay [2], 1200 ng/cm^2. For the same substance, the Thickness of Bound Antibody in assay [1] came out at 7.43 nm.
In the case of “Recombinant protein G (PG) from Streptococcus sp. (from UniProt P19909 34-562) (natural protein)”, in assay [3], the Half-Life t1/2 worked out at 1.4 min, the Kd was 4.62 nM, the koff came to 0.00824 s⁻¹ and the kon amounted to 1.79e+06 M⁻¹ s⁻¹.
